Experimental data published in IntAct's records for PubMed 29789297.

B1: Casein kinase I isoform alpha (Homo sapiens), P48729 (parent)
chain: MASSSGSKAEFIVGGKYKLVRKIGSGSFGDIYLAINITNGEEVAVKLESQKARHPQLLYESKLYKILQGGVGIPHIRWYGQEKDYNVLVMDLLGPSLEDLFNFCSRRFTMKTVLMLADQMISRIEYVHTKNFIHRDIKPDNFLMGIGRHCNKLFLIDFGLAKKYRDNRTRQHIPYREDKNLTGTARYASINAHLGIEQSRRDDMESLGYVLMYFNRTSLPWQGLKAATKKQKYEKISEKKMSTPVEVLCKGFPAEFAMYLNYCRGLRFEEAPDYMYLRQLFRILFRTLNHQYDYTFDWTMLKQKAAQQAASSSGQGQQAQTPTGKQTDKTKSNMKGF
partner: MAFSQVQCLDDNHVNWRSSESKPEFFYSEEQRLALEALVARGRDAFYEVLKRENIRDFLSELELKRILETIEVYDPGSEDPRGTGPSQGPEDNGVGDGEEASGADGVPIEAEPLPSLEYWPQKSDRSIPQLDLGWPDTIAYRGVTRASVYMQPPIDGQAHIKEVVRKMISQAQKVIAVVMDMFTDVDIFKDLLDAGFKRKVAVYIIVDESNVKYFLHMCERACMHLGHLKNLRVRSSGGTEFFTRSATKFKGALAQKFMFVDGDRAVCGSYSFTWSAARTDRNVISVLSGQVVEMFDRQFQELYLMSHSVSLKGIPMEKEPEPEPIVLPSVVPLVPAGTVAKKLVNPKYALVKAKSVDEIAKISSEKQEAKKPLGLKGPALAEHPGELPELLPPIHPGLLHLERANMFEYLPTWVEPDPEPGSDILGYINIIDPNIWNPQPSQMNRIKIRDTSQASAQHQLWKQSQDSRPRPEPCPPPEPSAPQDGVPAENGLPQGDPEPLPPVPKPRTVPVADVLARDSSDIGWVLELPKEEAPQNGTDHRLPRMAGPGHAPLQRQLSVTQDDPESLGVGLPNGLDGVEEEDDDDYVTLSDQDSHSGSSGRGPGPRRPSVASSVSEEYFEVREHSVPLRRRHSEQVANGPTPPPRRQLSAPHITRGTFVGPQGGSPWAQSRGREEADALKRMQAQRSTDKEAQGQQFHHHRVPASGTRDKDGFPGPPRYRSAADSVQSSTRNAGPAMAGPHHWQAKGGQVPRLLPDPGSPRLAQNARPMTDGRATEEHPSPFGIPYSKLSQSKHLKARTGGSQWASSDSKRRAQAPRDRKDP
B2: Protein FAM83H (Homo sapiens), Q6ZRV2 (parent)
chain: MARRSQSSSQGDNPLAPGYLPPHYKEYYRLAVDALAEGGSEAYSRFLATEGAPDFLCPEELEHVSRHLRPPQYVTREPPEGSLLDVDMDGSSGTYWPVNSDQAVPELDLGWPLTFGFQGTEVTTLVQPPPPDSPSIKDEARRMIRSAQQVVAVVMDMFTDVDLLSEVLEAAARRVPVYILLDEMNAQHFLDMADKCRVNLQHVDFLRVRTVAGPTYYCRTGKSFKGHVKEKFLLVDCAVVMSGSYSFMWSFEKIHRSLAHVFQGELVSSFDEEFRILFAQSEPLVPSAAALARMDAYALAPYAGAGPLVGVPGVGAPTPFSFPKRAHLLFPPPREEGLGFPSFLDPDRHFLSAFRREEPPRMPGGALEPHAGLRPLSRRLEAEAGPAGELAGARGFFQARHLEMDAFKRHSFATEGAGAVENFAAARQVSRQTFLSHGDDFRFQTSHFHRDQLYQQQYQWDPQLTPARPQGLFEKLRGGRAGFADPDDFTLGAGPRFPELGPDGHQRLDYVPSSASREVRHGSDPAFAPGPRGLEPSGAPRPNLTQRFPCQAAARPGPDPAPEAEPERRGGPEGRAGLRRWRLASYLSGCHGEDGGDDGLPAPMEAEAYEDDVLAPGGRAPAGDLLPSAFRVPAAFPTKVPVPGPGSGGNGPEREGPEEPGLAKQDSFRSRLNPLVQRSSRLRSSLIFSTSQAEGAAGAAAATEKVQLLHKEQTVSETLGPGGEAVRSAASTKVAELLEKYKGPARDPGGGAGAITVASHSKAVVSQAWREEVAAPGAVGGERRSLESCLLDLRDSFAQQLHQEAERQPGAASLTAAQLLDTLGRSGSDRLPSRFLSAQSHSTSPQGLDSPLPLEGSGAHQVLHNESKGSPTSAYPERKGSPTPGFSTRRGSPTTGFIEQKGSPTSAYPERRGSPVPPVPERRSSPVPPVPERRGSLTLTISGESPKAGPAEEGPSGPMEVLRKGSLRLRQLLSPKGERRMEDEGGFPVPQENGQPESPRRLSLGQGDSTEAATEERGPRARLSSATANALYSSNLRDDTKAILEQISAHGQKHRAVPAPSPGPTHNSPELGRPPAAGVLAPDMSDKDKCSAIFRSDSLGTQGRLSRTLPASAEERDRLLRRMESMRKEKRVYSRFEVFCKKEEASSPGAGEGPAEEGTRDSKVGKFVPKILGTFKSKK
B3: Protein FAM83C (Homo sapiens), Q9BQN1 (parent)
chain: MFGGPGPGVLGAQGMAGPLRGRVEELKLPWWRESSPLVLRHSEAARLAADALLERGEAAYLRVISEERELPFLSALDVDYMTSHVRGGPELSEAQGQEASGPDRLSLLSEVTSGTYFPMASDIDPPDLDLGWPEVPQATGFSPTQAVVHFQRDKAKNIKDLLRFLFSQAHTVVAVVMDIFTDMELLCDLMEASSRRGVPVYLLLAQEHLRHFLEMCYKMDLNGEHLPNMRVRSTCGDTYCSKAGRRFTGQALEKFVLIDCEQVVAGSYSFTWLCSQAHTSMVLQLRGRIVEDFDREFRCLYAESQPVEGFCGGEDPLSPRALRPPPVALAFRPDVPSPTSSLPSSTSLSSIKQSPLMGRSSYLALPGGGDCSDTGVVSSSLGPARREASGQPSLHRQLSDPNHGSPPGLYRANLGKLGAYPWSQSSPALNHNSTSPLTLAVGSPLLPRSRPLLQFHRGAPALSRFPENGLPGSQEPSPLRGRWVPGTTLETVEEKEKKASPSQSRGQLDLLVPFPRAREVGDPDSGVTPNSGPLRPGEQAPEDRRLSPSQADSQLDLLSRALGTGGAPELGSLRPGDRALEDRRLSLNQSRGQSDLLMQYPKAQGSRVPLETNSSARPARRAPDERRQTLGHSQLDLITKFGPFRGEGPGPNGLPISSPARTAGAGSGDEKRLTLGHSKLDLITKYHQLHGARQGTEPGGPKGGHLNGGNSDLVRDEKRLTLGHSKLDLITKYNKSKFKQLRSRFES
B4: Protein FAM83G (Homo sapiens), A6ND36 (parent)
chain: B1 partner
B5: Protein FAM83F (Homo sapiens), Q8NEG4 (parent)
chain: MAESQLNCLDEAHVNEKVTEAQAAFYYCERRRAALEALLGGGEQAYRERLKEEQLRDFLSSPERQALRAAWSPYEDAVPAANARGKSKAKAKAPAPAPAESGESLAYWPDRSDTEVPPLDLGWTDTGFYRGVSRVTLFTHPPKDEKAPHLKQVVRQMIQQAQKVIAVVMDLFTDGDIFQDIVDAACKRRVPVYIILDEAGVKYFLEMCQDLQLTDFRIRNIRVRSVTGVGFYMPMGRIKGTLSSRFLMVDGDKVATGSYRFTWSSSHVDRNLLLLLTGQNVEPFDTEFRELYAISEEVDLYRQLSLAGRVGLHYSSTVARKLINPKYALVSGCRHPPGEMMRWAARQQREAGGNPEGQEEGASGGESAWRLESFLKDLVTVEQVLPPVEPIPLGELSQKDGRMVSHMHRDLKPKSREAPSRNGMGEAARGEAAPARRFSSRLFSRRAKRPAAPNGMASSVSTETSEVEFLTGKRPNENSSADISGKTSPSSAKPSNCVIS
B6: Casein kinase I isoform alpha (Homo sapiens), P48729 (parent)
chain: B1 chain
B7: Casein kinase I isoform alpha (Homo sapiens), P48729 (parent)
chain: B1 chain
partner: B2 chain

Variants of: B1
Settings: with fa83g_human FAM83G
In the case of N141A, the “effect of a mutation on the interaction” value is reported as “with no effect”.

Variants of: B2
Settings: with kc1a_human CSNK1A1, P48729
In the case of F270A, the “effect of a mutation on the interaction” value is reported as “disrupting interaction strength”. In the case of D236A, the “effect of a mutation on the interaction” value is reported as “disrupting interaction strength”.

Variants of: B2
Settings: with kc1e_human CSNK1E
In the case of F270A, the “effect of a mutation on the interaction” value is reported as “disrupting interaction strength”. In the case of D236A, the “effect of a mutation on the interaction” value is reported as “disrupting interaction strength”.

Variants of: B3
Settings: with kc1a_human CSNK1A1, P48729
F293A was tested, and the “effect of a mutation on the interaction” value was “disrupting interaction strength”. In the case of D259A, the “effect of a mutation on the interaction” value is reported as “disrupting interaction strength”.

Variants of: B4
Settings: with kc1a_human CSNK1A1, P48729
With F296A the “effect of a mutation on the interaction” value was “disrupting interaction strength”. F300A was tested, and the “effect of a mutation on the interaction” value was “with no effect”. With F296A;F300A the “effect of a mutation on the interaction” value was “disrupting interaction strength”.

Variants of: B4
Settings: with kc1a_human CSNK1A1, P48729
Remark: another data set of the same source
For F300A, the “effect of a mutation on the interaction” value was “disrupting interaction strength”. In the case of D262A, the “effect of a mutation on the interaction” value is reported as “disrupting interaction strength”.

Variants of: B5
Settings: with kc1a_human CSNK1A1, P48729
For F284A, the “effect of a mutation on the interaction” value was “disrupting interaction strength”. With D250A the “effect of a mutation on the interaction” value was “disrupting interaction strength”.

Variants of: B6
Settings: with fa83e_human FAM83E
In the case of N141A, the “effect of a mutation on the interaction” value is reported as “with no effect”.

Variants of: B6
Settings: with fa83f_human FAM83F
With N141A the “effect of a mutation on the interaction” value was “with no effect”.

Variants of: B7
Settings: with fa83h_human FAM83H
For N141A, the “effect of a mutation on the interaction” value was “with no effect”.
